Assay results reported in article PMC8138981.

Tests used:
[1] = molecular target: mTFP1-AB-mcpVenus folding biosensor, WT (human)
[2] = molecular target: mTFP1-AB-mcpVenus folding biosensor, W344R (human)
[3] = molecular target: YFP-tagged Kv7.2 WT channel (human) (UniProt O43526); assay: FRET or BRET; living HEK293T cells; mCFP-CaM (donor) and YFP (mCitrine)-tagged Kv7.2, ABCD or AB (acceptor), transfection ratio 1:5; spectral unmixing of confocal images; room temperature, buffer with 2 mM CaCl2, pH 7.4
YFP-tagged Kv7.2 WT channel (human), sequence (O43526 other isoform, or with tags, fused parts or gaps): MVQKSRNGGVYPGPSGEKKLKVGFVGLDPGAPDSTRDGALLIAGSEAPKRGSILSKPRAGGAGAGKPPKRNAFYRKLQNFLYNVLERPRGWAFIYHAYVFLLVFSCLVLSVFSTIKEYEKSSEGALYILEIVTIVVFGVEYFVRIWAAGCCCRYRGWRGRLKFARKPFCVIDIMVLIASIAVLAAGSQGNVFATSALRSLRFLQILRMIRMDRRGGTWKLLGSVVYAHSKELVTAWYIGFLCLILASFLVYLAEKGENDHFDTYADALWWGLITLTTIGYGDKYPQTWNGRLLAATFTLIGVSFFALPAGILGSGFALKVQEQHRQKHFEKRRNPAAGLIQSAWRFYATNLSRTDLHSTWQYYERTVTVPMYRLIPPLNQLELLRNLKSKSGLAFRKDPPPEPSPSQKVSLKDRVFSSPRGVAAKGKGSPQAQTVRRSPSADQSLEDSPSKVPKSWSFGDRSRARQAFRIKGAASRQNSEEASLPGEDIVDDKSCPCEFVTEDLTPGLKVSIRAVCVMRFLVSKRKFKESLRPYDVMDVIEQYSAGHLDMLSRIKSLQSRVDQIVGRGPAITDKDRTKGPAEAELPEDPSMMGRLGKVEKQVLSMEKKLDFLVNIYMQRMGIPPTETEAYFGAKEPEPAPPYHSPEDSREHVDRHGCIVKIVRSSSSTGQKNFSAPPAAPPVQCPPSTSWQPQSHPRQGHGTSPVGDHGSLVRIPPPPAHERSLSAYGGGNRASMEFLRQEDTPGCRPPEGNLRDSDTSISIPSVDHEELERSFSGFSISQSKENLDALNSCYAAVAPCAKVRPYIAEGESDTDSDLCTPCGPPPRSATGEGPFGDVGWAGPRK

mTFP1-AB-mcpVenus folding biosensor, WT (human), sequence (O43526 whole entry): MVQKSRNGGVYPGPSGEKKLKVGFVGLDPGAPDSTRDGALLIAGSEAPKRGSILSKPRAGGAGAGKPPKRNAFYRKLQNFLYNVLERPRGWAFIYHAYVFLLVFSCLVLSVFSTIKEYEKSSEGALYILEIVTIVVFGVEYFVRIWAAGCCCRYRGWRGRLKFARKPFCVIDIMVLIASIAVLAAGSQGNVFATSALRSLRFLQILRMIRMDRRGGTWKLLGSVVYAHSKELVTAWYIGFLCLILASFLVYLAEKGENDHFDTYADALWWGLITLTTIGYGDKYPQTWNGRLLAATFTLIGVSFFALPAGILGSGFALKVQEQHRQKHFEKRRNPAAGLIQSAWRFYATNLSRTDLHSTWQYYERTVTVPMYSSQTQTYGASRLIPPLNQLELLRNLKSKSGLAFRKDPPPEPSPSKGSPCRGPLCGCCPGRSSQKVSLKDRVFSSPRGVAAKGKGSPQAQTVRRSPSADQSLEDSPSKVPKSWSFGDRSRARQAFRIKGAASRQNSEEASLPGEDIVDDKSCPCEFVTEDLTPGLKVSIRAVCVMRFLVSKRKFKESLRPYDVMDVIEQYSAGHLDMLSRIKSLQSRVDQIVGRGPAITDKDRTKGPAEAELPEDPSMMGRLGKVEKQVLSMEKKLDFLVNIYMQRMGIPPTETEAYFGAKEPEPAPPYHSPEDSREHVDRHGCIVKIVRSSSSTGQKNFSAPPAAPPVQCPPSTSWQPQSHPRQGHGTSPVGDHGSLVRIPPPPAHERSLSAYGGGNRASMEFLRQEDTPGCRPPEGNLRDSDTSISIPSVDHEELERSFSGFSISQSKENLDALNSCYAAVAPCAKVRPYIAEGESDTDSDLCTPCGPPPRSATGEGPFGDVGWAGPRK

FRET efficiency (ratio of peak emission at 528 and 492 nm) of the folding sensor co-expressed with CaM [1] | FRET efficiency of the soluble fraction of the sensor co-expressed with CaM in E. coli, relative to the WT biosensor [2] [%] | FRET efficiency [3] | Substance
0.4 | 33 |  | Calmodulin (from UniProt P0DP23 1-149) (natural protein)
 |  | 0.18 | Calmodulin with an N-terminus mCFP-tag (from UniProt P0DP23 1-149) (natural protein)
